Test results taken from patent US20120316071A1 (published 2012).

target: T1, Recombinant Human DLL4 (delta-like protein 4) (human, UniProt Q9NR61 27-524); test: ELISA, DLL4 coated on plate, Fab at 100 nM
T1 construct: also called rHuman DLL4; Delta-like 4

ELISA Signal-blank (100 nM Fab) | Binder
0.39 | Fab VH5-51_IGHD5-18*01>3_IGHJ4*01 G100K/G104T G24T/S28R/G35V & V3-4_IGLJ1*01 V91L/S96P (Fab, V domains shown, Fab expressed in E. coli; heavy chain vector adds CH1 with His6 and Flag tags, light chain vector adds lambda CL; Template of the S52, T53 and S57 light chain mutants; also called H:KT TRV & L:LP) VH: EVQLVQSGAEVKKPGESLKISCKTSGYRFTSYWIVWVRQMPGKGLEWMGIIYPGDSDTRYSPSFQGQVTISADKSISTAYLQWSSLKASDTAMYYCARRKYSYTYDYFDYWGQGTLVTVSS VL: QTVVTQEPSFSVSPGGTVTLTCGLSSGSVSTSYYPSWYQQTPGQAPRTLIYSTNTRSSGVPDRFSGSILGNKAALTITGAQADDESDYYCLLYMGPGISYVFGTGTKVTVL
0.42 | Fab VH5-51_IGHD5-18*01>3_IGHJ4*01 G100K/G104T G24T/S28R/G35V & V3-4_IGLJ1*01 V91L/S96P S52I (Fab, V domains shown, Fab expressed in E. coli; heavy chain vector adds CH1 with His6 and Flag tags, light chain vector adds lambda CL; also called H:KT TRV & L:LP S52I) VH: EVQLVQSGAEVKKPGESLKISCKTSGYRFTSYWIVWVRQMPGKGLEWMGIIYPGDSDTRYSPSFQGQVTISADKSISTAYLQWSSLKASDTAMYYCARRKYSYTYDYFDYWGQGTLVTVSS VL: QTVVTQEPSFSVSPGGTVTLTCGLSSGSVSTSYYPSWYQQTPGQAPRTLIYITNTRSSGVPDRFSGSILGNKAALTITGAQADDESDYYCLLYMGPGISYVFGTGTKVTVL
0.29 | Fab VH5-51_IGHD5-18*01>3_IGHJ4*01 G100K/G104T G24T/S28R/G35V & V3-4_IGLJ1*01 V91L/S96P S52W (Fab, V domains shown, Fab expressed in E. coli; heavy chain vector adds CH1 with His6 and Flag tags, light chain vector adds lambda CL; also called H:KT TRV & L:LP S52W) VH: EVQLVQSGAEVKKPGESLKISCKTSGYRFTSYWIVWVRQMPGKGLEWMGIIYPGDSDTRYSPSFQGQVTISADKSISTAYLQWSSLKASDTAMYYCARRKYSYTYDYFDYWGQGTLVTVSS VL: QTVVTQEPSFSVSPGGTVTLTCGLSSGSVSTSYYPSWYQQTPGQAPRTLIYWTNTRSSGVPDRFSGSILGNKAALTITGAQADDESDYYCLLYMGPGISYVFGTGTKVTVL
0.45 | Fab VH5-51_IGHD5-18*01>3_IGHJ4*01 G100K/G104T G24T/S28R/G35V & V3-4_IGLJ1*01 V91L/S96P S52N (Fab, V domains shown, Fab expressed in E. coli; heavy chain vector adds CH1 with His6 and Flag tags, light chain vector adds lambda CL; also called H:KT TRV & L:LP S52N) VH: EVQLVQSGAEVKKPGESLKISCKTSGYRFTSYWIVWVRQMPGKGLEWMGIIYPGDSDTRYSPSFQGQVTISADKSISTAYLQWSSLKASDTAMYYCARRKYSYTYDYFDYWGQGTLVTVSS VL: QTVVTQEPSFSVSPGGTVTLTCGLSSGSVSTSYYPSWYQQTPGQAPRTLIYNTNTRSSGVPDRFSGSILGNKAALTITGAQADDESDYYCLLYMGPGISYVFGTGTKVTVL
0.09 | Fab VH5-51_IGHD5-18*01>3_IGHJ4*01 G100K/G104T G24T/S28R/G35V & V3-4_IGLJ1*01 V91L/S96P T53E (Fab, V domains shown, Fab expressed in E. coli; heavy chain vector adds CH1 with His6 and Flag tags, light chain vector adds lambda CL; also called H:KT TRV & L:LP T53E) VH: EVQLVQSGAEVKKPGESLKISCKTSGYRFTSYWIVWVRQMPGKGLEWMGIIYPGDSDTRYSPSFQGQVTISADKSISTAYLQWSSLKASDTAMYYCARRKYSYTYDYFDYWGQGTLVTVSS VL: QTVVTQEPSFSVSPGGTVTLTCGLSSGSVSTSYYPSWYQQTPGQAPRTLIYSENTRSSGVPDRFSGSILGNKAALTITGAQADDESDYYCLLYMGPGISYVFGTGTKVTVL
0.44 | Fab VH5-51_IGHD5-18*01>3_IGHJ4*01 G100K/G104T G24T/S28R/G35V & V3-4_IGLJ1*01 V91L/S96P S52H (Fab, V domains shown, Fab expressed in E. coli; heavy chain vector adds CH1 with His6 and Flag tags, light chain vector adds lambda CL; also called H:KT TRV & L:LP S52H) VH: EVQLVQSGAEVKKPGESLKISCKTSGYRFTSYWIVWVRQMPGKGLEWMGIIYPGDSDTRYSPSFQGQVTISADKSISTAYLQWSSLKASDTAMYYCARRKYSYTYDYFDYWGQGTLVTVSS VL: QTVVTQEPSFSVSPGGTVTLTCGLSSGSVSTSYYPSWYQQTPGQAPRTLIYHTNTRSSGVPDRFSGSILGNKAALTITGAQADDESDYYCLLYMGPGISYVFGTGTKVTVL
0.39 | Fab VH5-51_IGHD5-18*01>3_IGHJ4*01 G100K/G104T G24T/S28R/G35V & V3-4_IGLJ1*01 V91L/S96P S52Q (Fab, V domains shown, Fab expressed in E. coli; heavy chain vector adds CH1 with His6 and Flag tags, light chain vector adds lambda CL; also called H:KT TRV & L:LP S52Q) VH: EVQLVQSGAEVKKPGESLKISCKTSGYRFTSYWIVWVRQMPGKGLEWMGIIYPGDSDTRYSPSFQGQVTISADKSISTAYLQWSSLKASDTAMYYCARRKYSYTYDYFDYWGQGTLVTVSS VL: QTVVTQEPSFSVSPGGTVTLTCGLSSGSVSTSYYPSWYQQTPGQAPRTLIYQTNTRSSGVPDRFSGSILGNKAALTITGAQADDESDYYCLLYMGPGISYVFGTGTKVTVL
0.14 | Fab VH5-51_IGHD5-18*01>3_IGHJ4*01 G100K/G104T G24T/S28R/G35V & V3-4_IGLJ1*01 V91L/S96P T53H (Fab, V domains shown, Fab expressed in E. coli; heavy chain vector adds CH1 with His6 and Flag tags, light chain vector adds lambda CL; also called H:KT TRV & L:LP T53H) VH: EVQLVQSGAEVKKPGESLKISCKTSGYRFTSYWIVWVRQMPGKGLEWMGIIYPGDSDTRYSPSFQGQVTISADKSISTAYLQWSSLKASDTAMYYCARRKYSYTYDYFDYWGQGTLVTVSS VL: QTVVTQEPSFSVSPGGTVTLTCGLSSGSVSTSYYPSWYQQTPGQAPRTLIYSHNTRSSGVPDRFSGSILGNKAALTITGAQADDESDYYCLLYMGPGISYVFGTGTKVTVL
0.46 | Fab VH5-51_IGHD5-18*01>3_IGHJ4*01 G100K/G104T G24T/S28R/G35V & V3-4_IGLJ1*01 V91L/S96P S52M (Fab, V domains shown, Fab expressed in E. coli; heavy chain vector adds CH1 with His6 and Flag tags, light chain vector adds lambda CL; also called H:KT TRV & L:LP S52M) VH: EVQLVQSGAEVKKPGESLKISCKTSGYRFTSYWIVWVRQMPGKGLEWMGIIYPGDSDTRYSPSFQGQVTISADKSISTAYLQWSSLKASDTAMYYCARRKYSYTYDYFDYWGQGTLVTVSS VL: QTVVTQEPSFSVSPGGTVTLTCGLSSGSVSTSYYPSWYQQTPGQAPRTLIYMTNTRSSGVPDRFSGSILGNKAALTITGAQADDESDYYCLLYMGPGISYVFGTGTKVTVL
0.39 | Fab VH5-51_IGHD5-18*01>3_IGHJ4*01 G100K/G104T G24T/S28R/G35V & V3-4_IGLJ1*01 V91L/S96P S52D (Fab, V domains shown, Fab expressed in E. coli; heavy chain vector adds CH1 with His6 and Flag tags, light chain vector adds lambda CL; also called H:KT TRV & L:LP S52D) VH: EVQLVQSGAEVKKPGESLKISCKTSGYRFTSYWIVWVRQMPGKGLEWMGIIYPGDSDTRYSPSFQGQVTISADKSISTAYLQWSSLKASDTAMYYCARRKYSYTYDYFDYWGQGTLVTVSS VL: QTVVTQEPSFSVSPGGTVTLTCGLSSGSVSTSYYPSWYQQTPGQAPRTLIYDTNTRSSGVPDRFSGSILGNKAALTITGAQADDESDYYCLLYMGPGISYVFGTGTKVTVL
